Measurements: the supplement of paper PMC11246515
± gives the standard deviation of the averaged measurements.

Assay: total protein half-life in vivo (active degradation + dilution); higher = more stable protein
[1] = E. coli NCM3722 delta-clpP delta-lon delta-hslV, growth: N-lim chemostat, doubling time 6 h
[2] = E. coli NCM3722 delta-smpB, growth: N-lim chemostat, doubling time 6 h
[3] = wild type E. coli NCM3722, growth: C-lim chemostat, doubling time 3 h
[4] = wild type E. coli NCM3722, growth: C-lim chemostat, doubling time 6 h
[5] = wild type E. coli NCM3722, growth: C-lim chemostat, doubling time 12 h
[6] = wild type E. coli NCM3722, growth: N-lim chemostat, doubling time 6 h
[7] = wild type E. coli NCM3722, growth: N-lim chemostat, doubling time 12 h
[8] = wild type E. coli NCM3722, growth: P-lim chemostat, doubling time 6 h
[9] = wild type E. coli NCM3722, growth: P-lim chemostat, doubling time 12 h
[10] = E. coli NCM3722 delta-clpP, growth: N-lim chemostat, doubling time 6 h
[11] = E. coli NCM3722 delta-hslV, growth: N-lim chemostat, doubling time 6 h
[12] = E. coli NCM3722 delta-lon, growth: N-lim chemostat, doubling time 6 h

Sequence | total protein half-life in vivo [1] [h] | total protein half-life in vivo [2] [h] | total protein half-life in vivo [3] [h] | total protein half-life in vivo [4] [h] | total protein half-life in vivo [5] [h] | total protein half-life in vivo [6] [h] | total protein half-life in vivo [7] [h] | total protein half-life in vivo [8] [h] | total protein half-life in vivo [9] [h] | total protein half-life in vivo [10] [h] | total protein half-life in vivo [11] [h] | total protein half-life in vivo [12] [h]
MSRVNPLSSLSLLAVLVLAGCSSQAPQPLKKGEKAIDVASVVRQKMPASVKDRDAWAKDLATTFESQGLAPTLENVCSVLAVAQQESNYQADPAVPGLSKIAWQEIDRRAERMHIPAFLVHTALKIKSPNGKSYSERLDSVRTEKQLSAIFDDLINMVPMGQTLFGSLNPVRTGGPMQVSIAFAEQHTKGYPWKMDGTVRQEVFSRRGGLWFGTYHLLNYPASYSAPIYRFADFNAGWYASRNAAFQNAVSKASGVKLALDGDLIRYDSKEPGKTELATRKLAAKLGMSDSEIRRQLEKGDSFSFEETALYKKVYQLAETKTGKSLPREMLPGIQLESPKITRNLTTAWFAKRVDERRARCMKQ | 6.06 ± 0.21 | 5.8 ± 0.24 | 3.28 ± 0.2 | 6.11 ± 0.086 | 11.2 ± 0.54 | 6.93 ± 0.84 | 12.9 ± 0.39 | 6.11 ± 0.4 | 12.4 ± 0.53 |  |  | 
MSRVTAIISALIICIIVSLSWAVNHYRDNAIAYKVQRDKNARELKLANAAITDMQMRQRDVAALDAKYTKELADAKAENDALRDDVAAGRRRLHIKAVCQSVREATTASGVDNAASPRLADTAERDYFTLRERLITMQKQLEGTQKYINEQCR |  |  |  |  | 3.49 |  |  |  | 6.44 |  |  | 
MSSDIKIKVQSFGRFLSNMVMPNIGAFIAWGIITALFIPTGWLPNETLAKLVGPMITYLLPLLIGYTGGKLVGGERGGVVGAITTMGVIVGADMPMFLGSMIAGPLGGWCIKHFDRWVDGKIKSGFEMLVNNFSAGIIGMILAILAFLGIGPIVEALSKMLAAGVNFMVVHDMLPLASIFVEPAKILFLNNAINHGIFSPLGIQQSHELGKSIFFLIEANPGPGMGVLLAYMFFGRGSAKQSAGGAAIIHFLGGIHEIYFPYVLMNPRLILAVILGGMTGVFTLTILGGGLVSPASPGSILAVLAMTPKGAYFANIAGVCAAMAVSFVVSAILLKTSKVKEEDDIEAATRRMQDMKAESKGASPLSAGDVTNDLSHVRKIIVACDAGMGSSAMGAGVLRKKIQDAGLSQISVTNSAINNLPPDVDLVITHRDLTERAMRQVPQAQHISLTNFLDSGLYTSLTERLVAAQRHTANEEKVKDSLKDSFDDSSANLFKLGAENIFLGRKAATKEEAIRFAGEQLVKGGYVEPEYVQAMLDREKLTPTYLGESIAVPHGTVEAKDRVLKTGVVFCQYPEGVRFGEEEDDIARLVIGIAARNNEHIQVITSLTNALDDESVIERLAHTTSVDEVLELLAGRK | 6.55 ± 0.42 | 6.64 ± 0.41 | 3.35 ± 0.32 | 6.92 ± 0.54 | 12.66 ± 0.082 | 6.4 ± 0.15 |  | 6.275 ± 0.059 | 13.8 ± 1.2 | 6.42 ± 0.66 | 6.25 ± 0.23 | 
MSSFQFEQIGVIRSPYKEKFAVPRQPGLVKSANGELHLIAPYNQADAVRGLEAFSHLWILFVFHQTMEGGWRPTVRPPRLGGNARMGVFATRSTFRPNPIGMSLVELKEVVCHKDSVILKLGSLDLVDGTPVVDIKPYLPFAESLPDASASYAQSAPAAEMAVSFTAEVEKQLLTLEKRYPQLTLFIREVLAQDPRPAYRKGEETGKTYAVWLHDFNVRWRVTDAGFEVFALEPR | 5 ± 0.19 | 5.06 ± 0.3 | 2.89 ± 0.41 | 5.88 ± 0.54 | 9.48 ± 0.38 | 4.98 ± 0.3 | 10.1 ± 2.3 | 6.19 ± 0.56 | 13.5 ± 1.7 | 4.77 ± 0.35 | 4.77 ± 0.049 | 5.29 ± 0.31
MSSHPYVTQQNTPLADDTTLMSTTDLQSYITHANDTFVQVSGYTLQELQGQPHNMVRHPDMPKAAFADMWFTLKKGEPWSGIVKNRRKNGDHYWVRANAVPMVREGKISGYMSIRTRATDEEIAAVEPLYKALNAGRTSKRIHKGLVVRKGWLGKLPSLPLRWRARGVMTLMFILLAAMLWFVAAPVVTYILCALVVLLASACFEWQIVRPIENVAHQALKVATGERNSVEHLNRSDELGLTLRAVGQLGLMCRWLINDVSSQVSSVRNGSETLAKGTDELNEHTQQTVDNVQQTVATMNQMAASVKQNSATASAADKLSITASNAAVQGGEAMTTVIKTMDDIADSTQRIGTITSLINDIAFQTNILALNAAVEAARAGEQGKGFAVVAGEVRHLASRSANAANDIRKLIDASADKVQSGSQQVHAAGRTMEDIVAQVKNVTQLIAQISHSTLEQADGLSSLTRAVDELNLITQKNAELVEESAQVSAMVKHRASRLEDAVTVLH |  |  | 2.72 ± 0.7 |  |  |  |  |  |  |  |  | 
MSSKEQKTPEGQAPEEIIMDQHEEIEAVEPEASAEQVDPRDEKVANLEAQLAEAQTRERDGILRVKAEMENLRRRTELDIEKAHKFALEKFINELLPVIDSLDRALEVADKANPDMSAMVEGIELTLKSMLDVVRKFGVEVIAETNVPLDPNVHQAIAMVESDDVAPGNVLGIMQKGYTLNGRTIRAAMVTVAKAKA | 6.35 ± 0.23 | 4.79 ± 0.18 | 3.024 ± 0.0063 | 5.43 ± 0.17 | 9.26 ± 0.18 | 5.66 ± 0.14 | 8.74 ± 0.79 | 5.26 ± 0.24 | 10.7 ± 0.15 | 6.61 ± 1.3 | 5.31 ± 0.46 | 5.19 ± 0.26
MSSKLVLVLNCGSSSLKFAIIDAVNGEEYLSGLAECFHLPEARIKWKMDGNKQEAALGAGAAHSEALNFIVNTILAQKPELSAQLTAIGHRIVHGGEKYTSSVVIDESVIQGIKDAASFAPLHNPAHLIGIEEALKSFPQLKDKNVAVFDTAFHQTMPEESYLYALPYNLYKEHGIRRYGAHGTSHFYVTQEAAKMLNKPVEELNIITCHLGNGGSVSAIRNGKCVDTSMGLTPLEGLVMGTRSGDIDPAIIFHLHDTLGMSVDAINKLLTKESGLLGLTEVTSDCRYVEDNYATKEDAKRAMDVYCHRLAKYIGAYTALMDGRLDAVVFTGGIGENAAMVRELSLGKLGVLGFEVDHERNLAARFGKSGFINKEGTRPAVVIPTNEELVIAQDASRLTA [P0A6A3] | 4.23 ± 0.13 | 4.28 ± 0.21 | 3.25 ± 0.17 | 6.35 ± 0.1 | 12.1 ± 0.56 | 4.58 ± 0.21 | 8.13 ± 0.2 | 5.88 ± 0.24 | 13.1 ± 1.2 | 6.03 ± 2.6 | 4.41 ± 0.054 | 4.89 ± 0.78
MSSLINNAMSGLNAAQAALNTASNNISSYNVAGYTRQTTIMAQANSTLGAGGWVGNGVYVSGVQREYDAFITNQLRAAQTQSSGLTARYEQMSKIDNMLSTSTSSLATQMQDFFTSLQTLVSNAEDPAARQALIGKSEGLVNQFKTTDQYLRDQDKQVNIAIGASVDQINNYAKQIASLNDQISRLTGVGAGASPNNLLDQRDQLVSELNQIVGVEVSVQDGGTYNITMANGYSLVQGSTARQLAAVPSSADPSRTTVAYVDGTAGNIEIPEKLLNTGSLGGILTFRSQDLDQTRNTLGQLALAFAEAFNTQHKAGFDANGDAGEDFFAIGKPAVLQNTKNKGDVAIGATVTDASAVLATDYKISFDNNQWQVTRLASNTTFTVTPDANGKVAFDGLELTFTGTPAVNDSFTLKPVSDAIVNMDVLITDEAKIAMASEEDAGDSDNRNGQALLDLQSNSKTVGGAKSFNDAYASLVSDIGNKTATLKTSSATQGNVVTQLSNQQQSISGVNLDEEYGNLQRFQQYYLANAQVLQTANAIFDALINIR | 3.99 ± 0.38 | > 8 | 0.385 ± 0.15 | 0.323 ± 0.065 | 0.835 ± 0.28 | 5.22 ± 0.16 |  |  |  | > 8 | > 8 | 
